Assay: soluble on expression in E. coli; label from the status in PepcDB or PDB records

Soluble on expression in E. coli, not soluble:
MGSDKIHHHHHHMLSKFWRPQAPQMIGVDIGSYEIKAILLGKTADGYKIQAHSCVPIKKGAVVDHDIRDSAAVIEALKQVKRGLPKSAKFAAVSVSGSAVMTKVIYMDSSLTEEEMEAQIEIEADNLIPYSLDEVSIDFETLKTNKTDPTKVDVLLSACRTENIDSRVDALDAIDIDAKVVDVEGYALGRSAELIMAQLPPGAEEKSVALVDIGANMTTFAVVERGETIFTREQAFGGELFTQAILSTYGMSYDEAENAKIKGELPRNYTFEVLSPFQTQLLQQVKRTLQIYATASGKEKVDYIVLCGGTAKLEGMEALLLNELGINTVVANPFLGCLHGDELIKSQLQPNVNKYMVACGLALRSYAQWRI, MGSDKIHHHHHHMLSNNCSILLIDDDADVLDAYTQLLEQAGYHVSACNNPFDAREQVPKDWPGIVLSDVCMPGCSGIDLMTLFHQDDDLLPILLITGHGDVPMAVEAVKKGAWDFLQKPIDPGKLLTLVDAALRQRQSVIARRQYCQQKLQVELIGRSQWTVRYRQRLQQLAETDIAVWLYGEPGTGRMTGARYLHQLGRHAEGPFIACELTPANAHTLNELIAQAQGGTLVLSHPEHLTHEQQHQLVQLQSHEKRPFRLIGIGSASLVELAASSQIVAELYYCFAMTQIGCQPLSKRPDDIEPLFHHYLQKTCQRLNHPVPEVDAGLLKGMMRRVWPNNVRELANAAELFAVGVLPLAETVNPLMHIGEPTPLDQRVEDVERQIITEALNIHQGRINEVAEYLLIPRKKLYLRMKKYGLNKEHYKGV, MGSDKIHHHHHHMLSTVFRRTMATGRHFIAVCQMTSDNDLEKNFQAAKNMIERAGEKKCEMVFLPECFDFIGLNKNEQIDLAMATDCEYMEKYRELARKHNIWLSLGGLHHKDPSDAAHPWNTHLIIDSDGVTRAEYNKLHLFDLEIPGKVRLMESEFSKAGTEMIPPVDTPIGRLGLSICYDVRFPELSLWNRKRGAQLLSFPSAFTLNTGLAHWETLLRARAIENQCYVVAAAQTGAHNPKRQSYGHSMVVDPWGAVVAQCSERVDMCFAEIDLSYVDTLREMQPVFSHRRSDLYTLHINEKSSETGGLKFARFNIPADHIFYSTPHSFVFVNLKPVTDGHVLVSPKRVVPRLTDLTDAETADLFIVAKKVQAMLEKHHNVTSTTICVQDGKDAGQTVPHVHIHILPRRAGDFGDNEIYQKLASHDKEPERKPRSNEQMAEEAVVYRNLM, MGSDKIHHHHHHMLTPIPQIQHLFATNRRSARWLQLAFLLMALYYAPFSHAACTTPPSNTVLGPYGSSVVGVNGTPQVVASGSGFRCTGSVLSLASTNTITATIQSDSNPSGTTMRMRRGTTTDYVPYSLCMDSGCGTLYNINSTYTWSRTTFLDILGLFNSTDGTMPIYIRTSIGSNVSAGTYTDTVTIKWDYRLCALGILGLCSYDEGSTTSTLNITMTITNDCQITSAPNISFGTAAFPANFAAVNNNLGVRCTLLGAYTVKLVSTHPDDANWRRMTATVGSTPYYLQYQLYRTGNIAWTETNDYSGAGTGITQNIPYTARINASQASKPEGTYKDTVTINVTIN, MGSDKIHHHHHHMLTVNNVSLRYGGRKLFEDVNLKFTPGNCYGIIGANGAGKSTFLKILSGEIEPNTGDVSVDSNTRISVLKQDHFQYDEYEVLETVIMGNERLYSIMKEKDALYAKPDFSEEDGIKASTLEGEFAELNGWEAESEAATLLQGLGISTELHSKKMSELIGGEKVKVLLAQALFGNPGILLLDEPTNHLDIKSIAWLEEFLIDFEGTVIVVSHDRHFLNKVCTMIADVDYGKITLYVGNYDFWYKSSTLALEMTKDQNKKKEEKIKELKDFIARFSANASKSKQATSRKKMLDKLNLEDIKPSNRKYPFIGFKPEREPGNDILTVENLSKTIDGEKVLNNVSFIVSKDDKIALVGDNEIAQTTLFKILSGEMEPDSGSYKWGITITNAYFPKDNSEYFNDCDLSLVDWLRQYSEEKSETYIRGFLGRMLFSGEEALKKASVLSGGEKVRCMLAKTMLTNANFLMFDQPTNHLDLESITALNNGLTNYKSNLMFTSHDHEFIQTIANRIIEITNDGIIDRKCTYDEYLEIQ, MGSDKIHHHHHHMLTYTVYSEAGGVGKTTMAANLAVADARAGHDVLAIDMDPQEGSLSFLFDVADHRTDSEADSLVRHLVERPRGPFSDLIETSEGVDVLPAHNSLEVLSKHLRRREEEAADFGENWNPNVQLLRVLKDAGVPSEYDTVIIDPPATADVKLYNALHATRNLVIPFEPSGKGQQSVAGLADLVTGLEDTLDINVGVLAAVPNRFKGTNDQEEMLKRLQAESYDIPVVFRERTSLLEGCWRKQCSAFKYIEEHRSRERDYEIETLEQFEELAAHLRQTREQEATA, MGSDKIHHHHHHMLVVKDKPKSPISEAYRTLRSNIQFSSFDKDMQLILITSSGPGEGKSTTSCNLALAMAEAGNSVLLLDCDLRKPSVHKKFKISNNIGLSNVLAGQTKFESASHWYNQNLCILTAGKIPPNPAEMLSSKRMKAFLNEAKGVFKYIILDAPPVIAVTDPQILSTMVDGVVLVVSSGVADIEAAKRAKELLENVNANIIGSVLNRVDTESRRGYYGGYYYYYGDEGEKVKKHKDR, MGSDKIHHHHHHMMAKGTLCVLDPASILVVAPHFKRRLSGVTSTVVQLIPQQRRRGLAIATLGPGLPETMPALTFAQMPALWKKPRGASHRVWHARRNLEMLVGVVLRDVLRMPLKLLFTSAAQRHHSRYTRWLISKMDAVVATSARSGSFLHVPHSVIRHGIDTELFHPPQGAEDRIAATNLPGDYLIGCFGRVRHQKGTDLFVKAMIELLPRYPGWTAVVSGRVTPEHKGFAEGLKAQIAAASLTERIVFLGEVEDIKPWYRRLTLYVAPSRNEGFGLTPLEAMASETVVVASDAGAYAELIAEGATGAVVAADAYAPLRDAIEPYLADPGRACLHGKAAVAHVRENFALAREAAGLEAVYSRLLGRPVIAPPAPQP, MGSDKIHHHHHHMMFGYIKPLKCELKVKEYEEFRGYYCGVCKALKKYSIIPRFLLTYEAASLGLLLSSLNNSDLKRKKELCIFTLKKVDFYSSSEIDEVARVFTALLREKLKDNYIDRKNPVYLFASAFLKKDPEISSLFENFYEMEKKEQDFKILAEEQGKIVGTILSKMVKEETQRKILYYLGLSLGKWLYIVDALDDFEKDKRKNVFNPLVKKYNGDLEKARSELRPHLKKCIDEMWKAYDLLDIKRNKTILDNIVYLGIPFITENVLVGKTCNLNHSTIL, MGSDKIHHHHHHMMFVHIADNHLGYRQYNLDDREKDIYDSFKLCIKKILEIKPDVVLHSGDLFNDLRPPVKALRIAMQAFKKLHENNIKVYIVAGNHEMPRRLGEESPLALLKDYVKILDGKDVINVNGEEIFICGTYYHKKSKREEMLDKLKNFESEAKNYKKKILMLHQGINPYIPLDYELEHFDLPKFSYYALGHIHKRILERFNDGILAYSGSTEIIYRNEYEDYKKEGKGFYLVDFSGNDLDISDIEKIDIECREFVEVNIKDKKSFNEAVNKIERCKNKPVVFGKIKREFKPWFDTLKDKILINKAIIVDDEFIDMPDNVDIESLNIKELLVDYANRQGIDGDLVLSLYKALLNNENWKELLDEYYNTKFRG, MGSDKIHHHHHHMMIATFSLSPAGAKRLIARGLINEAVFQQAMTHGRMIIGVGTTNSYIAEELGLLSADEKPRFAAGIVSGGVPCVTAADTRFTSICLENGRIIKDISWEEFIMDFNRDDVFVKGANAFDADGNAGVLLANPRGGTVGGSFGVLAARGCKLLVPVGHEKLIPSCTAAARLMGINRLDYSLGQRCGLALLPAGFAQIYTEIDALKTLFAVEATIVAAGGVSGSEGSVMLAIDGPDEAVKDALALARTLLKEKPLSVPRQSCKDCQASGNCVFKEIPPID, MGSDKIHHHHHHMMITSKSLNRKSIPAPLPSIAEDVLEGLSRTPKSLPPKLLYDATGSDLFEQITCLPEYYPTRTEAGILTVHAEEICSHLRRNVSVSELGAGTATKTRILLRSLVRQQFGVNYFPLDVSDAALQLAKDEVESELSRVKVHPQLGDFDNLTFLEHQSPPRLVLYIGSSIGNLENDAAIALLQNIARNLSTGDKLLLGADLVKDINVMHAAYNDEAGVTALFNKNLLVRINRELSGHFDPESFCHISFWNEAESRIELHLESACRQAVRIDTLDMTFHFDRGERIHTENSYKYTVEHLENLLRSGGFQVEHTWTDPDSWFAVSLGVIT, MGSDKIHHHHHHMMKLIPRSSDISPGIDGICPGPFPPNGFTVLTDAAYGNGDCFGLYWPIGQEHKLPIVCETYHDEWRIVPAFSSIKKFEEWLEVNDDDPHENGISIEDQDFAANLFRVARKCLSTGRLDDALPLLQRATEQLPEVSEYWLALAIQYRRCKKTEAAAQAALNAYLGNWAFGVPDNKVIHLLSQAADVPNFQDDPVIQCIKEQGLDLSFGGTKENNNYPLMQMCVDTYFAQRKPLQALTLLHNYAWIMSSETTAFQERYDFNIDEWRAKFRQLCLEYFGDSRTQFT, MGSDKIHHHHHHMMKMERKNVWHHRKKEEIEAFSKEYMEFMSKAKTERMTVKEIKRILDESGFVPLEDFAGDPMNMTVYAVNRGKAIAAFRVVDDLKRGLNLVVAHIDSPRLDFKPNPLIEDEQIALFKTHYYGGIKKYHWLSIPLEIHGVLFKNDGTEIEIHIGDKPEDPVFTIPDLLPHLDKEDAKISEKFKGENLMLIAGTIPLSGEEKEAVKTNVLKILNEMYGITEEDFVSGEIEVVPAFSPREVGMDRSLIGAYGQDDRICAYTALRALLSANPEKSIGVIFFDKEEIGSDGNTGAKARFYLKALRQILKMQGAKDSEFVLDEVLENTSVISGDVCAAVNPPYKDVHDLHNAPKLGYGVALVKYTGARGKYSTNDAHAEFVARVRKVLNEQGVIWQVATLGKVDQGGGGTIAKFFAERGSDVIDMGPALLGMHSPFEISSKADLFETYVAYRSLMEKL, MGSDKIHHHHHHMMNKREQDYWIFSVELRESKVSEENGKSIVITPLGLSAKRILIAGTVSSKQSDDRMARISLADPIGSFYVTAFSGGFNPEEKAMVDSLEVDDKAMVMGKINPYRTSEGVYLFSIRPELVSKTGEDALRLWTLKAYYFAKRRIYAIREAQKLQDPKADELISLGYSRVEAEAAISSIKNFPGYDYQRILEAIETAIYSVSTPTQLPEVRSKILNYIKENDTDGKGCKYEDIVIAAKNMGIDQSTTDEILNTLGSSGEIFEISLKRYKAVEPE, MGSDKIHHHHHHMMNTSTSDPIGAAWLIRYASIELVSPLYITSSIGGRRQTYKEGNVIHNAYQETARPLDTIIAHLQFHMRHEVLNLELLVRLFEQIGADDVQAWVNAEPTGSYARRMAFLYEWLMDKELAVSSNLGGNYVDALDTKKMVTSSPEHIIKNARWRINDNLAGTRHFCPMLVKTEAFTQAAALDIATMVEKLNDEFGQDLLMRASVWMTLRESKASFTIEGEGKELKRIERFAEVMARRTGKGDIPLDPESLAELQQEILGSKTVIQQYGIRQSPVFVSHTQVNGFKEIVHYIAPPSEDIAYKLTGLQALMKKTEGQSALMRSAVASFAFVYIHPLADGNGRVHRFLINDVLRRDQVIHEPIILPISQAIAEHPSDRHAYDKILDRVSVPLMRQIRDHYRFDKQAVTYPDGIRSNLNFADSHLIQPAWRFMDLTPHVQYLSGLIAHVIEKEMHNESQYLRQHDHARLAIKEIVEMPNSYADRIIRSMLQNKGAKSNKLLQDYPFLANEAVWDDVFSVVVEIFK, MGSDKIHHHHHHMMQKPKVGQDVPEPSAGGMFQRDAMSPSVAHKPVLELKGNLLSLMVLYLFDSDRNLIEQQFTEKISGAKNFFKNAPIVIDLHALQNTSVPVDLSHLSDLFRKHGLVPVGVRGGNVQQQQAALNLSLGILPDAKPASSRGEPQTEVAVQATRDKVFTQPVRSGQQVAALQGDLVVLAAVNPGAEILAGKNIHVYGPLRGRAIAGVHGYSEARIFCRYFDAELVAVAGQYMLNEDFEDSVRGKPVHIFLENDRLKIQPFEI
